Data reported in US20230140384A1 (Bristol-Myers Squibb, published 2023).
Numbering of substitutions follows the chain as printed. In names and notes the source's numbering stands. Values belong to the binder of their own block, whether it stands above or below them.

Key:
hCD64 [1] = biological target: T1, hCD64 (human, UniProt P12314 16-288); test: SPR % Rmax, compared with 12D6-IgG1f-P238K
T1 construct: also called FcγRI
Procedure: (§1) The binding of human FcγRs to antibodies was studied by surface plasmon resonance using a Biacore 8K system (GE Healthcare, USA). For these studies, protein A was immobilized on flow cells 1-4 of the CM5 sensor chip using standard ethyl (dimethylaminopropyl) carbodiimide (EDC)/N-hydroxysuccinimide […] chemistry, with ethanolamine blocking, in a running buffer of 10 mM HEPES pH 7.4, 150 mM NaCl, 3 mM EDTA, 0.05% surfactant p20, to a density of ˜3000 RU. Purified 12D6-24-IgG1f antibody (10 μg/mL) or expression supernatants of all other antibodies (diluted to ˜10 μg/ml) were captured on the protein A surface to a density of ˜1000-1200 RU, and the binding of FcγR analytes was tested in running buffer consisting of 10 mM NaPO₄, 130 mM NaCl, 0.05% p20, buffer (PBS-T) pH 7.1 at 25° C., using 120 s association time and 120 s dissociation time at a flow rate of 20 μL/min. The data were analyzed using Biacore 8K evaluation software by determining the measured binding response as a percentage of theoretical maximum binding response for each antibody (% Rmax), based on the level of captured antibody, assuming 100% fractional activity and only taking into account protein mass without glycosylation.

hCD64 [2] = biological target: T1, hCD64; test: SPR, antibody captured on protein A, FcγR as analyte
Procedure: as §1

T1 sequence (P12314 16-288 limits assumed): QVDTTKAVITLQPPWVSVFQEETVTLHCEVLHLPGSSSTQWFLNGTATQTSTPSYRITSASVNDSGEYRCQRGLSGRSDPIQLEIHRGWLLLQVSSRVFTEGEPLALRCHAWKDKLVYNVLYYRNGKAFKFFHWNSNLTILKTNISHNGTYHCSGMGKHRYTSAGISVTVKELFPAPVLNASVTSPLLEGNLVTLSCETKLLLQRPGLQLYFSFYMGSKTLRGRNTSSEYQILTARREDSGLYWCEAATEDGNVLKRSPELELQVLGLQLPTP

fold reduction of binding against P238K alone (hCD64 [1]): ~10 fold
B1: 12D6-IgG1f-L235E-P238K (antibody)
heavy: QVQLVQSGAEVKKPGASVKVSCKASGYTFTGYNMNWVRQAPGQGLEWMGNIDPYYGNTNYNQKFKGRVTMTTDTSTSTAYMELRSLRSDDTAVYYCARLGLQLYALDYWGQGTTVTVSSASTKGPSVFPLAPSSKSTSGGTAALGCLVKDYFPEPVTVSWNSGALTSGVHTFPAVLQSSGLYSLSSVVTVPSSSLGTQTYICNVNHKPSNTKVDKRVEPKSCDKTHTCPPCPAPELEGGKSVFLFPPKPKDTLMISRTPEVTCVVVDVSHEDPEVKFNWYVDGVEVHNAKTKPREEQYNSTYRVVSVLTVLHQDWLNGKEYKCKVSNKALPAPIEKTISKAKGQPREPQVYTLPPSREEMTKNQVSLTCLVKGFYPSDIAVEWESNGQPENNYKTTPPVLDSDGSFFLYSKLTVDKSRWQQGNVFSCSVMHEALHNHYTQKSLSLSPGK
light: DIVMTQTPLSLPVTPGEPASISCRSSQSLVHSNANTYLHWYLQKPGQSPQLLIYKLTNRFFGVPDRFSGSGSGTDFTLKISRVEAEDVGVYYCSQSIHVPWTFGGGTKVEIKRTVAAPSVFIFPPSDEQLKSGTASVVCLLNNFYPREAKVQWKVDNALQSGNSQESVTEQDSKDSTYSLSSTLTLSKADYEKHKVYACEVTHQGLSSPVTKSFNRGEC
notes: Tested as expression supernatant; copies: 2 + 2

binding result (hCD64 [2]): no binding (tested: 1 µM)
B2: 12D6-IgG2.3G1.3f-P238K (antibody)
heavy: QVQLVQSGAEVKKPGASVKVSCKASGYTFTGYNMNWVRQAPGQGLEWMGNIDPYYGNTNYNQKFKGRVTMTTDTSTSTAYMELRSLRSDDTAVYYCARLGLQLYALDYWGQGTTVTVSSASTKGPSVFPLAPCSRSTSESTAALGCLVKDYFPEPVTVSWNSGALTSGVHTFPAVLQSSGLYSLSSVVTVPSSNFGTQTYTCNVDHKPSNTKVDKTVERKSCVECPPCPAPEAEGAKSVFLFPPKPKDTLMISRTPEVTCVVVDVSHEDPEVKFNWYVDGVEVHNAKTKPREEQYNSTYRVVSVLTVLHQDWLNGKEYKCKVSNKALPAPIEKTISKAKGQPREPQVYTLPPSREEMTKNQVSLTCLVKGFYPSDIAVEWESNGQPENNYKTTPPVLDSDGSFFLYSKLTVDKSRWQQGNVFSCSVMHEALHNHYTQKSLSLSPGK
light: B1 light
notes: copies: 2 + 2

binding result (hCD64 [2]): no binding (tested: 1 µM)
B3: 12D6-IgG1.3f-P238K (antibody)
heavy: QVQLVQSGAEVKKPGASVKVSCKASGYTFTGYNMNWVRQAPGQGLEWMGNIDPYYGNTNYNQKFKGRVTMTTDTSTSTAYMELRSLRSDDTAVYYCARLGLQLYALDYWGQGTTVTVSSASTKGPSVFPLAPSSKSTSGGTAALGCLVKDYFPEPVTVSWNSGALTSGVHTFPAVLQSSGLYSLSSVVTVPSSSLGTQTYICNVNHKPSNTKVDKRVEPKSCDKTHTCPPCPAPEAEGAKSVFLFPPKPKDTLMISRTPEVTCVVVDVSHEDPEVKFNWYVDGVEVHNAKTKPREEQYNSTYRVVSVLTVLHQDWLNGKEYKCKVSNKALPAPIEKTISKAKGQPREPQVYTLPPSREEMTKNQVSLTCLVKGFYPSDIAVEWESNGQPENNYKTTPPVLDSDGSFFLYSKLTVDKSRWQQGNVFSCSVMHEALHNHYTQKSLSLSPGK
light: B1 light
notes: Tested as expression supernatant; IgG1.3f carries L234A, L235E and G237A; copies: 2 + 2

binding result (hCD64 [2]): no binding (tested: 1 µM)
B4: 12D6-IgG2.5G1.3f-P238K (antibody)
heavy: B2 heavy with C133S, S221C
light: B1 light
notes: copies: 2 + 2
